US11466286B2, “Methods and compositions for conferring and/or enhancing herbicide tolerance using protoporphyrinogen oxidase or variant thereof” (FarmHannong Co., Ltd., priority 2016, dated 2022)
Substitutions are numbered along the chain they refer to. In names and notes the source's numbering stands.

B1: CyPPO13 F373I: CyPPO13 (SEQ ID NO: 4) PPO variant (protein)
chain: MNPATPEPLNAEVVVIGAGISGLTLAWRLQQGLSARGGSPQAVLLAEASSRVGGCISTQSKDGYRWEEGPNSFTPTPALLNLIAEVGLTDQLVLADAKLPRYIYWEGALLPVPLSPAAALGSRLLSVGGKLRALQGLLGFVPPPPGHEETVRQFFRRQLGSEVAERLVEPFTSGVYAGDPDQLSAVAAFPRVAGLEERYGSLFAGALQALRQRPQPSPAAIQPPPKRGQLGNLRQGLQQLPEALAQKLGDSLRLGWRALQLKRAGELYWVGFETPEGSRWVAARQVVLALPAYEAAALLQELNPPASQLLAEILYPPVAVVALAYPQEALPQPLRGFGHLIPRSQGLRTLGTIWASCLFPERAPQGYHSFLSILGGATDAALARRRGIPPIPALSPEERAQIAHAELSQVLLTRRAEPVYLGERLWPRAIPQYTLGHRQRIAQVQAHLASQTPGIWVCANYLDGVALGDCVRRAEALAQQLLSQV
modifications: Synthetic CyPPO13
B2: CyPPO13 F373C: CyPPO13 (SEQ ID NO: 4) PPO variant (protein)
chain: B1 chain with I373C
modifications: Synthetic CyPPO13
B3: CyPPO13 F373M: CyPPO13 (SEQ ID NO: 4) PPO variant (protein)
chain: B1 chain with I373M
modifications: Synthetic CyPPO13
B4: CyPPO13 A177L + F373I: CyPPO13 (SEQ ID NO: 4) PPO variant (protein)
chain: B1 chain with A177L
modifications: Synthetic CyPPO13
B5: CyPPO13 A177C: CyPPO13 (SEQ ID NO: 4) PPO variant (protein)
chain: B1 chain with A177C, I373F
modifications: Synthetic CyPPO13
B6: CyPPO13 A177L + F373L: CyPPO13 (SEQ ID NO: 4) PPO variant (protein)
chain: B1 chain with A177L, I373L
modifications: Synthetic CyPPO13
B7: AtPPO1 WT: wild type Arabidopsis thaliana PPO1, PPO susceptible (SEQ ID NO: 5) (protein, listed as Arabidopsis thaliana)
chain: MELSLLRPTTQSLLPSFSKPNLRLNVYKPLRLRCSVAGGPTVGSSKIEGGGGTTITTDCVIVGGGISGLCIAQALATKHPDAAPNLIVTEAKDRVGGNIITREENGFLWEEGPNSFQPSDPMLTMVVDSGLKDDLVLGDPTAPRFVLWNGKLRPVPSKLTDLPFFDLMSIGGKIRAGFGALGIRPSPPGREESVEEFVRRNLGDEVFERLIEPFCSGVYAGDPSKLSMKAAFGKVWKLEQNGGSIIGGTFKAIQERKNAPKAERDPRLPKPQGQTVGSFRKGLRMLPEAISARLGSKVKLSWKLSGITKLESGGYNLTYETPDGLVSVQSKSVVMTVPSHVASGLLRPLSESAANALSKLYYPPVAAVSISYPKEAIRTECLIDGELKGFGQLHPRTQGVETLGTIYSSSLFPNRAPPGRILLLNYIGGSTNTGILSKSEGELVEAVDRDLRKMLIKPNSTDPLKLGVRVWPQAIPQFLVGHFDILDTAKSSLTSSGYEGLFLGGNYVAGVALGRCVEGAYETAIEVNNFMSRYAYK
modifications: PEPTIDE (1)..(537) Wild type AtPPO1
B8: AtPPO1 SLYM: mutated A. thaliana PPO1 with amino acid substitutions Y426M and S305L, PPO-inhibiting herbicide tolerant control (protein)
chain: B7 chain with S305L, Y426M
modifications: Synthetic Mutant type AtPPO1
B9: CyPPO10 WT: PPO protein derived from Thermosynechococcus elongatus BP-1, amino acid sequence SEQ ID NO: 2 (protein)
chain: MIEVDVAIVGGGLSGLSVAWRLQRSAPHYSGVLLEASDRLGGNITTQAAEGFVWELGPNSFAPTPALLQLIAEVGLHSELIRGDRHLPRYIYWRGELYPLEPTRPLALATSNLLSPWGKVRAALGALGFVPPYLGSGDESVDSFFRRHLGQEVAERLVAPFVSGVYAGDPQQLSAAAAFRRIAQLEKLGGSLIAGALRLRRQQPPQPKPPAQVQMRPGELGSFREGLAALPRAIAQQLKAPLHLQTPVEAITPEPKGGYLLRSGEQTWHARSVVLATPAYQTAELVAPFQPAIARALATIPYPTVACVVLAYPAGLGRSVRPGFGVLVPRGQGIRTLGTIWSSCLFPQRTPAGWQVFTSFIGGATDPDLASLREEAIVEQVQQDLTRLLDLPAAKARLLGMKVWRRAIPQYIVGYPQQWQQVTHALTQTPGLFLCSNYAEGVALGDRVEHGNRTAAAVAAYLAGGQS
modifications: Synthetic CyPPO10

How the values were obtained:
[1] = tested on: CyPPO13; experiment: PPO enzyme activity and IC50 by herbicides, CyPPO13 wild type and variants (MBP-PPO fusion); type: biochemical, Synechococcus sp. JA-3-3Ab; details: PPO enzyme activity of CyPPO13 protein, wild type = 100
Protocol: The enzyme activities of PPO protein and PPO protein variants were examined, and inhibition assay by PPO-inhibiting herbicides was conducted. It was confirmed that the PPO protein has low water-solubility, but in case of being expressed as a fusion protein with MBP (maltose binding protein) (MBP-PPO), the PPO protein is able to be stably expressed as water-soluble form. Therefore, the wild type and variant proteins which were expressed in the form of fusion protein with MBP were used in the present test (refer to FIG. 4).
In order to express wild type genes and mutant genes of CyPPO10 and CyPPO13 (refer to Example 1 and Example 4), those genes were introduced to pMAL-c2X vector (refer to FIG. 5) respectively, and then cloned to BL21 (DE3) E. coli (CodonPlus).
The enzyme activity of the purified wild type protein and variant proteins of CyPPO10 and CyPPO13 was measured by the following process.
At first, a substrate of PPO protein, Protoporphyrinogen IX was synthesized. This process was performed in the space where nitrogen gas is streamed. 6 mg of protoporphyrin IX was dissolved in 20% (v/v) EtOH 20 ml, and stirred under dark condition for 30 minutes. The obtained protoporphyrinogen IX solution was put into a 15 ml screw tube in an amount of 800 and flushed with nitrogen gas for 5 minutes. To this, 1 g of sodium amalgam was added and vigorous shaking was performed for 2 minutes. The lid was open to exhaust hydrogen gas in the tube. Thereafter, the lid was closed and incubated for 3 minutes. The […] was filtered using syringe and cellulose membrane filter. To 600 μl of the obtained […], 2M MOPS [3-(N-morpholino)propanesulfonic acid] was added in an amount of approximately 300 thereby adjusting pH to 8.0. To determine the enzyme activity of PPO protein, a reaction mixture was prepared with the following composition (based on 10 ml): 50 mM Tris-Cl (pH 8.0); 50 mM NaCl; 0.04% (v/v) Tween 20; 40 mM glucose (0.072 g); 5 units glucose oxidase (16.6 mg); and 10 units catalase (1 μl).
Two hundred microliters (200 μl) of reaction mixture containing a purified PPO protein were placed in 96 well plates, and preincubated for 30 min at room temperature to reduce the oxygen concentration by the reaction of glucose oxidase-catalase. The mineral oil was layered and then the reaction was initiated by adding the substrate, […], to a final concentration of 50 μM. The reaction proceeded at room temperature for 30 min and the fluorescence of protoporphyrin IX was measured using Microplate reader (Sense, Hidex) (excitation: 405 nm; emission: 633 nm). To calculate the PPO enzyme activity, protoporphyrinogen IX solution was kept open in the air to oxidize the solution (overnight). To this, 2.7N HCl was added, and the absorbance at 408 nm was measured. A standard curve was generated using standard protoporphyrin IX, and the PPO activity was measured by calibration of protoporphyrin IX using the standard curve of protoporphyrin IX.
The final concentration of each herbicide was as follows: […]

[2] = tested on: A. thaliana; experiment: Seed germination of A. thaliana transformants on ½ MS media containing herbicides; type: in vivo, Arabidopsis thaliana; details: T3 lines; 25 μM glufosinate, 25 μM glufosinate+70 nM tiafenacil, or 25 μM glufosinate+30 nM tiafenacil+40 nM saflufenacil; 7 days after sowing
Text: T3 generation seeds of each transformant were sown in ½ MS media containing herbicides. Col-0 ecotype (wild type Arabidopsis) seeds were used as a control. The kinds of herbicides and concentration are as follows:
In FIGS. 31a to 31c, 10-3 refers to CyPPO10 wild type, 10FM-4-7 to the CyPPO10 F360M transgenic line, 10FL-1-9 to the CyPPO10 F360L transgenic line, 10FC-3-5 to the CyPPO10 F360C transgenic line, 10AC-5-4 to the CyPPO10 A167C transgenic line, 13-1 to CyPPO13 wild type, 13FM-3-1 to the CyPPO13 F373M transgenic line, 13FC-1-1 to the CyPPO13 F373C transgenic line, 13FI-2-1 to the CyPPO13 F373I transgenic line, 13AC-1-3 to the CyPPO13 A177C transgenic line, CyPPO13_ALFL to the CyPPO13 A177L+F373L transgenic line, and CyPPO13_ALFI to the CyPPO13 A177L+F373I transgenic line, respectively.

[3] = tested on: PPO-deficient BT3 E. coli (ΔPPO); experiment: Tiafenacil tolerance of BT3 E. coli transformed with CyPPO10, CyPPO13 or AtPPO1 genes (pACBB vector); type: cell-based; details: tiafenacil 0 μM; PPO function complementation
Protocol: After transforming PPO-deficient BT3 E. coli (ΔPPO) with CyPPO10 or CyPPO13, the transformed BT3 (ΔPPO) was cultured on LB agar plates containing PPO-inhibiting herbicide to examine the growth level of the transformed BT3 (ΔPPO). BT3 (ΔPPO) strain was obtained from Hokkaido University (Japan). The BT3 (ΔPPO) strain is deficient in hemG-type PPO and has kanamycin tolerance (refer to “Watanabe et al., Dual targeting of spinach protoporphyrinogen oxidase II to mitochondria and chloroplasts by alternative use of two in-frame […], JBC 2001 276(23):20474-20481; Che et al., Molecular Characterization and Subcellular Localization of Protoporphyrinogen Oxidase in Spinach Chloroplasts, Plant Physiol. 2000 September; 124(1):59-70”).
The cloned plasmid was added to 100 μl of BT3 competent cell (Hokkaido University; Japan) respectively, thereby transforming by a heat shock method. The transformed E. coli with each PPO gene was cultured in LB (Luria-Bertani) agar media comprising Chloramphenicol (Duchefa).
For seed culture of E. coli transformed with respective genes, each single colony of E. coli transformant as provided above was cultured in 3 ml of LB broth containing chloramphenicol overnight (220 rpm, 37° C.), and 50 to 100 μl were subcultured in a new 3 ml of LB broth, and they were cultured until absorbance (OD600) became 0.5 to 1, and they were diluted with LB broth to absorbance (OD600) of 0.5. The diluted solution was serially diluted again 5 times by a factor of one tenth with LB broth. […] The LB Agar media were incubated at 37° C., under light condition, and level of inhibiting growth was observed after 16 to 20 hours of incubation.
Plant physiol. 2003 133:736-747).

[4] = tested on: CyPPO10; experiment: PPO enzyme activity and IC50 by herbicides, CyPPO10 wild type and variants (MBP-PPO fusion); type: biochemical, Thermosynechococcus elongatus BP-1; details: PPO enzyme activity of CyPPO10 protein, wild type = 100
Summary of the method: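 Activity was read as protoporphyrin IX fluorescence (405/633 nm), calibrated with a protoporphyrin IX standard curve, after 30 min at room temperature with 50 μM substrate under mineral oil. The buffer was 50 mM Tris-Cl pH 8.0 with glucose oxidase/catalase and a 30 min preincubation. Enzymes were purified MBP-PPO fusions of CyPPO10 or CyPPO13, wild type and variants, expressed in E. coli.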

Molecule | Activity (%) [1] | Seed germination in media containing herbicides [2] | Growth of BT3 transformant on medium containing no herbicide [3] | Activity (%) [4]
B1 | 83% | germinated |  | 
B2 | 86% | germinated |  | 
B3 | 98% | germinated |  | 
B4 | 66% | germinated |  | 
B5 | 98% | germinated |  | 
B6 | 68% | germinated |  | 
B7 |  |  | recovered | 
B8 |  |  | recovered | 
B9 |  | germinated | recovered | 100%
